# Experimental data reported in paper PMC8327139, “Nodal modulator (NOMO) is required to sustain endoplasmic reticulum morphology” (The Journal of Biological Chemistry, 2021).
# B1: NOMO1-FLAG (nodal modulator 1, full length, C-terminal FLAG tag) (natural protein, human, UniProt Q15155 32-1222, looked up)
# chain: SEDIVVGCGGFVKSDVEINYSLIEIKLYTKHGTLKYQTDCAPNNGYFMIPLYDKGDFILKIEPPLGWSFEPTTVELHVDGVSDICTKGGDINFVFTGFSVNGKVLSKGQPLGPAGVQVSLRNTGTEAKIQSTVTQPGGKFAFFKVLPGDYEILATHPTWALKEASTTVRVTNSNANAASPLIVAGYNVSGSVRSDGEPMKGVKFLLFSSLVTKEDVLGCNVSPVPGFQPQDESLVYLCYTVSREDGSFSFYSLPSGGYTVIPFYRGERITFDVAPSRLDFTVEHDSLKIEPVFHVMGFSVTGRVLNGPEGDGVPEAVVTLNNQIKVKTKADGSFRLENITTGTYTIHAQKEHLYFETVTIKIAPNTPQLADIIATGFSVCGQISIIRFPDTVKQMNKYKVVLSSQDKDKSLVTVETDAHGSFCFKAKPGTYKVQVMVPEAETRAGLTLKPQTFPLTVTNRPMMDVAFVQFLASVSGKVSCLDTCGDLLVTLQSLSRQGEKRSLQLSGKVNAMTFTFDNVLPGKYKISIMHEDWCWKNKSLEVEVLEDDMSAVEFRQTGYMLRCSLSHAITLEFYQDGNGRENVGIYNLSKGVNRFCLSKPGVYKVTPRSCHRFEQAFYTYDTSSPSILTLTAIRHHVLGTITTDKMMDVTVTIKSSIDSEPALVLGPLKSVQELRREQQLAEIEARRQEREKNGNEEGEERMTKPPVQEMVDELQGPFSYDFSYWARSGEKITVTPSSKELLFYPPSMEAVVSGESCPGKLIEIHGKAGLFLEGQIHPELEGVEIVISEKGASSPLITVFTDDKGAYSVGPLHSDLEYTVTSQKEGYVLTAVEGTIGDFKAYALAGVSFEIKAEDDQPLPGVLLSLSGGLFRSNLLTQDNGILTFSNLSPGQYYFKPMMKEFRFEPSSQMIEVQEGQNLKITITGYRTAYSCYGTVSSLNGEPEQGVAMEAVGQNDCSIYGEDTVTDEEGKFRLRGLLPGCVYHVQLKAEGNDHIERALPHHRVIEVGNNDIDDVNIIVFRQINQFDLSGNVITSSEYLPTLWVKLYKSENLDNPIQTVSLGQSLFFHFPPLLRDGENYVVLLDSTLPRSQYDYILPQVSFTAVGYHKHITLIFNPTRKLPEQDIAQGSYIALPLTLLVLLAGYNHDKLIPLLLQLTSRLQGVRALGQAASDNSGPEDAKRQAKKQKTRRT
# notes: Nodal modulator 1 (NOMO1), human, type I transmembrane glycoprotein: luminal domain (1124 residues), TM domain, 40-residue cytosolic tail; cloned from a Dharmacon plasmid into pcDNA3.1+; 135 kDa with the tag; Membrane protein kept in dodecyl maltoside (0.05% DDM); also called full-length NOMO1-FLAG; full-length NOMO; source: Expi293F, transfected, purified in DDM (anti-FLAG M2 beads, FLAG peptide …)
# Target: the molecule itself
# Assay: SEC-MALS; NOMO1-FLAG on a Superose 6 column, RT, 50 mM MES pH 6.0, 150 mM KCl, 5 mM MgCl2, 5 mM CaCl2, 2% glycerol, 0.05% DDM; protein conjugate analysis to correct for detergent
protein,measurement,value
B1,stoichiometry N,2
